B1: Cyclin-Y (Homo sapiens), Q8ND76 (parent)
chain: MGNTTSCCVSSSPKLRRNAHSRLESYRPDTDLSREDTGCNLQHISDRENIDDLNMEFNPSDHPRASTIFLSKSQTDVREKRKSLFINHHPPGQIARKYSSCSTIFLDDSTVSQPNLKYTIKCVALAIYYHIKNRDPDGRMLLDIFDENLHPLSKSEVPPDYDKHNPEQKQIYRFVRTLFSAAQLTAECAIVTLVYLERLLTYAEIDICPANWKRIVLGAILLASKVWDDQAVWNVDYCQILKDITVEDMNELERQFLELLQFNINVPSSVYAKYYFDLRSLAEANNLSFPLEPLSRERAHKLEAISRLCEDKYKDLRRSARKRSASADNLTLPRWSPAIIS

In one experiment the parent is B1. Particulars: with cul1_human CUL1, Q13616.
Sequence of cul1_human CUL1, Q13616 (Q13616 whole entry): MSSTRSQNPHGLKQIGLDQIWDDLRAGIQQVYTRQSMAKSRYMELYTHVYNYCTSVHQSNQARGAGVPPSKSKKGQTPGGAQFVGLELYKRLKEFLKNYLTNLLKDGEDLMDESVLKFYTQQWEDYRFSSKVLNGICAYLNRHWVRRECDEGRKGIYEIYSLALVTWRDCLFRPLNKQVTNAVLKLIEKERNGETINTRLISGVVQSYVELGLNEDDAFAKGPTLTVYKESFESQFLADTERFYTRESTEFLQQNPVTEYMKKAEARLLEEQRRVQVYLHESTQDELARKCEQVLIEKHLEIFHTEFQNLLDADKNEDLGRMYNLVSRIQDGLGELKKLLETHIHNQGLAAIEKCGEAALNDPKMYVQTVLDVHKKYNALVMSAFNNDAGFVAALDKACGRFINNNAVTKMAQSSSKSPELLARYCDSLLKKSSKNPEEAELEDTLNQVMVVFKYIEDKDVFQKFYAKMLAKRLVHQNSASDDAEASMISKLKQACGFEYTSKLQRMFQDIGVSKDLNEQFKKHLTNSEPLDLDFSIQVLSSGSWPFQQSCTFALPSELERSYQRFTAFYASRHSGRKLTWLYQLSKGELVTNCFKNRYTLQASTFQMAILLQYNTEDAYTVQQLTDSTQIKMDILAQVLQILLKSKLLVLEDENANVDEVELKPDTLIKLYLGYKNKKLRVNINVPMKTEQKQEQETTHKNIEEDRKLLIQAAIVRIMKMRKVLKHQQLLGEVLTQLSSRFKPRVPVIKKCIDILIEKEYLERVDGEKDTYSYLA
Regarding MGNTTSCCVSSSPKLRRNAHSRLESYRPDTDLSREDTGCNLQHISDRENIDDLNMEFNPSDHPRASTIFLSKAQTDVREKRKSLFINHHPPGQIARKYSSCSTIFLDDSTVSQPNLKYTIKCVALAIYYHIKNRDPDGRMLLDIFDENLHPLSKSEVPPDYDKHNPEQKQIYRFVRTLFSAAQLTAECAIVTLVYLERLLTYAEIDICPANWKRIVLGAILLASKVWDDQAVWNVDYCQILKDITVEDMNELERQFLELLQFNINVPSSVYAKYYFDLRSLAEANNLSFPLEPLSRERAHKLEAISRLCEDKYKDLRRSARKRSASADNLTLPRWSPAIIS [S73A], the “effect of a mutation on the interaction” value is given as “decreasing interaction”.

Variants of B1 are the subject of the next experiment. Particulars: with cul1_human CUL1, Q13616. The source holds these as a separate data set.
Consider MGNTTSCCVSSSPKLRRNAHSRLESYRPDTDLSREDTGCNLQHISDRENIDDLNMEFNPSDHPRASTIFLAKAQTDVREKRKSLFINHHPPGQIARKYSSCSTIFLDDSTVSQPNLKYTIKCVALAIYYHIKNRDPDGRMLLDIFDENLHPLSKSEVPPDYDKHNPEQKQIYRFVRTLFSAAQLTAECAIVTLVYLERLLTYAEIDICPANWKRIVLGAILLASKVWDDQAVWNVDYCQILKDITVEDMNELERQFLELLQFNINVPSSVYAKYYFDLRSLAEANNLSFPLEPLSRERAHKLEAISRLCEDKYKDLRRSARKRSASADNLTLPRWSPAIIS [S71A;S73A], for which the “effect of a mutation on the interaction” value is “disrupting interaction”.

The variants in a further experiment derive from B1. Particulars: with cul1_human CUL1, Q13616. The source holds these as a separate data set.
As for MGNTTSCCVSSSPKLRRNAHSRLESYRPDTDLSREDTGCNLQHISDRENIDDLNMEFNPSDHPRASTIFLAKSQTDVREKRKSLFINHHPPGQIARKYSSCSTIFLDDSTVSQPNLKYTIKCVALAIYYHIKNRDPDGRMLLDIFDENLHPLSKSEVPPDYDKHNPEQKQIYRFVRTLFSAAQLTAECAIVTLVYLERLLTYAEIDICPANWKRIVLGAILLASKVWDDQAVWNVDYCQILKDITVEDMNELERQFLELLQFNINVPSSVYAKYYFDLRSLAEANNLSFPLEPLSRERAHKLEAISRLCEDKYKDLRRSARKRSASADNLTLPRWSPAIIS [S71A], the “effect of a mutation on the interaction” value was “decreasing interaction”.

For the origin of these results see IntAct's records for PubMed 24794231.
